Numbering of substitutions follows the chain as printed. Names may count otherwise. Read-outs that look alike come from different tables or passages of the source. Blank lines part the entries; values can stand above or below the molecule they belong to.
Legend:
Gαi = experiment: GTPγS binding to Gαi (GDP/GTPγS exchange, GEF activity of Ric8A constructs); type: biochemical; details: for Rate of GDP/GTPγS exchange reaction on Gαi, mean: Gαi 1 µM, GDP 1 µM, Ric8A construct 1 µM, GTPγS 10 µM, 20 mM Tris-HCl pH 8.0, 150 mM NaCl, 5% glycerol, 1 mM TCEP, 10 mM MgCl2, tryptophan fluorescence ex 295 nm, em 340 nm, one phase association fit; for Rate of GDP/GTPγS exchange reaction on Gαi: same conditions
Experimental: The rates of GTPγS binding to Gαi in the absence or presence of Ric8A1–492 (Ric8A1–452) were measured by following the increase in fluorescence of Gαi tryptophan. Gαi (1 µM) was mixed with GDP (1 µM) in a fluorescence cuvette, in 20 mM Tris-HCl (pH 8.0) buffer containing 150 mM NaCl, 5% glycerol, 1 mM TCEP and 10 mM MgCl2, and incubated for 2 min. The binding reaction was initiated by addition of Ric8A1–492 or Ric8A1–452 (1 µM each) and/or and GTPγs (10 µM). Fluorescence at 340 nm was monitored with the excitation set at 295 nm. Data were fit to an equation for one phase association using the GraphPad Prism 7.05 software.

Gαt333–350 = experiment: BLI: Ric8A1–492 and its mutants binding to biotinylated Gαt333–350; details: for Kd: BLI steady state, source data
Experimental: (§1) An Octet RED96 system and streptavidin (SA)-coated biosensors (FortéBio, Menlo Park, CA) were used to measure association and dissociation kinetics for Gα peptides or the full-length Avi-tagged Gαt in relation to Ric8A1–492, Ric8A1–452, and Ric8A1–426. To obtain the Avi-tagged Gαt, Gαt was cloned into modified pET21a vector with the N-terminal His6-tag followed by the Avi tag and TEV cleavage site[59]. The Avi-tagged I340Q/N343H mutant of Gαt was prepared by QuikChange protocol. BL21(DE3) cells for expression of the Avi-tagged Gαt were grown in 2TY media supplemented with biotin (10 mg/liter), induced at OD600 of 0.6 with 50 µM IPTG and further grown overnight at 16 °C. Binding studies were performed in 20 mM Tris, 150 mM KCl, 5% glycerol, 1 mM TCEP, 0.5 mg/ml BSA, pH 8.0. All steps were performed at 26 °C, with biosensors stirred into 0.2 ml of sample in each well at 1000 rpm, and at a data acquisition rate of 5.0 Hz. N-terminally biotinylated Gαt333–350, Gαs363–380, C1 peptide and C2 peptide were loaded onto SA sensors at a concentration of 0.05, 0.05, 0.005, and 0.01 mg/ml for 40–90 seconds. Data for association and dissociation phases of the assay were collected as shown in Fig. 1b and Supplementary Figs. 8, 11, 12, and 14. To correct for baseline drift and non-specific binding, reference sensors lacking bound Gα peptide were used in the BLI assays with Ric8A proteins at the highest concentrations. Kinetic data fitting was performed using FortéBio Data Analysis software 10.0. For each concentration of Ric8A1–492, dissociation rate constant (kd) values were calculated from the corresponding dissociation phases of the curves. These kd values were used to calculate the association rate constant (ka) values from the association phases for each concentration according to the equation1 ka=kobserved-kd∕Ric8A1-492 The average ka and kd were calculated as means of the individual ka and kd values for all curves. Equilibrium dissociation constant KD was calculated as mean kd/mean ka. Steady-state data fitting was performed using the GraphPad Prism 7 software with the equation for one site specific binding.

Gαt [1] = experiment: BLI: Ric8A1–492 and its mutants binding to full-length Avi-tagged Gαt; details: BLI steady state, source data
Experimental: as §1

[2] = DSF thermostability of Ric8A constructs and Ric8A1–492 mutants (protein alone); type: physicochemical, bovine; details: DSF; for Tm: Sypro Orange, protein alone 0.5 mg/ml, 20 mM Tris-HCl pH 7.5, 150 mM KCl, 5% glycerol, 1 mM TCEP, 1 °C/minute, mean ± SD (n = 3); for mean Tm / Tm (C ): protein alone, source data; for mean Tm: mean of replicates
Experimental: Stabilities of Ric8A constructs with and without peptide ligands were assessed using differential scanning fluorimetry (DSF), in which an increase in fluorescence of the Sypro Orange dye is measured. Ric8A1–492, Ric8A1–452 and Ric8A1–426 in 20 mM Tris-HCl (pH 7.5) buffer containing 150 mM KCl, 5% glycerol, and 1 mM TCEP with and without peptide were used at a final concentration of 0.5 mg/ml and were supplemented with a 1000-fold dilution of Sypro Orange dye (Invitrogen). Temperature was increased at 1 °C/minute and fluorescence signals were recorded using real-time PCR (C1000 Touch thermal cycler, Bio Rad), with the cycler set to FRET mode and the excitation wavelength set at 450–490 nm and the emission wavelength at 560–580 nm.

Gαt [3] = experiment: SEC co-migration of Ric8A1–492 R75M mutant with full-length Gαt; type: binding
Experimental: Ric8A1–492/miniGαi complex was prepared by mixing Ric8A with miniGαi at a 1:1.5 molar ratio. The complex was purified by SEC using a HiLoad 16/600 Superdex 200 pg column equilibrated with 20 mM Tris-HCl (pH 8.0) buffer containing 150 mM KCl, 5% glycerol, and 1 mM TCEP. This procedure removed excess miniGαi, ensuring 1:1 stoichiometry of the complex. Ric8A1–492/Gαt complexes were purified by mixing Ric8A1–492 with Gαt (1:1.5 molar ratio), followed by SEC using Superdex 200 10/300 GL column (GE healthcare) to remove excess Gαt. […]
with Gαt. (A) Ric8A1-492 was mixed with Gαt and loaded onto a MW-calibrated Superdex 200 10/300 column. SEC profile - black curve. Blue curve and a gel in the inset with a blue outline represent SEC profile of Ric8A1-492 alone. Red curve and a gel in the inset with a red outline represent SEC profile of Gαt alone. (B) Peak fractions in A analyzed by SDS-PAGE. Peak 1 containing the Ric8A1-492/Gαt complex is not fully resolved from peak 2 corresponding to Ric8A1-492 alone. (C) The R75M mutant of Ric8A1-492 was mixed with Gαt and loaded onto a MW-calibrated Superdex 200 16/600 column. SEC profile - black curve. Blue line and a gel in inset represent SEC profile of R75M alone. Red curve – SEC profile of Gαt alone. (D) Peak fractions in C analyzed by SDS-PAGE. […]

- Rate of GDP/GTPγS exchange reaction on Gαi, mean (Gαi): 0.3229
- Rate of GDP/GTPγS exchange reaction on Gαi (Gαi; replicate 1): 0.2658
- Rate of GDP/GTPγS exchange reaction on Gαi (Gαi; replicate 2): 0.38
- Kd (Gαt333–350; experiment 1, read-out: KD (uM), Gαt333-350): 0.27 µM
- Kd (Gαt333–350; experiment 2, read-out: KD (uM), Gαt333-350): 0.33 µM
- Kd (Gαt333–350; experiment 3, read-out: KD (uM), Gαt333-350): 0.33 µM
- Kd (Gαt333–350; experiment 4, read-out: KD (uM), Gαt333-350): 0.19 µM
- Kd (Gαt333–350; mean of replicates, read-out: Mean KD, Gαt333-350): 0.28 µM
- Kd (Gαt333–350; representative experiment, read-out: KD, steady-state curve of Figure 1c): 0.27 µM
- Kd (Gαt [1]; experiment 1, read-out: KD (nM), Gαt): 22.6 nM
- Kd (Gαt [1]; experiment 2, read-out: KD (nM), Gαt): 27 nM
- Kd (Gαt [1]; experiment 3, read-out: KD (nM), Gαt): 23.1 nM
- Kd (Gαt [1]; mean of replicates, read-out: mean KD, Gαt): 24.2 nM
B1: Ric8A1–492: bovine Ric8A construct truncated at the C-terminus (residues 1–492) (protein)
chain: MEPRAVADALETGEEDVVMEALRAYNRENSQSFTFDDAQQEDRKRLAKLLVSVLEQGLPPSRRVIWLQSIRILSRDRSCLDSFTSRRSLQALACYAGISASQGSVPEPLNMDVVLESLKCLCNLVLSSPVAQALAAEAGLVVRLAERVGLCRQSSFPHDVQFFDLRLLFLLTALRTDVRQQLFQELQGVRLLTRALELTLGMTEGERHPELLPPQETERAMEILKVLFNITFDSIKREVDEEDAALYRHLGTLLRHCVMLAAAGDRTEELHGHAVNLLGNLPVKCLDVLLTLEPHEGSLEFLGVNMDVIRVLLSFMEKRLHQTHRLKESVAPVLSVLTECARMHRPARKFLKAQVLPPLRDVRTRPEVGELLRNKLVRLMTHLDTDVKRVAAEFLFVLCSESVPRFIKYTGYGNAAGLLAARGLMAGGRPEGQYSEDEDTDTDEYKEAKASINPVTGRVEEKPPNPMEGMTEEQKEHEAMKLVNMFDKLSRH
modifications: left off: His6, N-terminal, state not stated
- Tm [2]: 46.8 ± 0.2 °C
- mean Tm [2]: 46.8 C
- Tm (C ) ([2]; replicate 1): 46.9 C
- Tm (C ) ([2]; replicate 2): 46.96 C
- Tm (C ) ([2]; replicate 3): 46.7 C

- binding to Gαt333–350 (in words) (Gαt333–350; BLI): ablated the binding
B2: R75M: R75M mutant of Ric8A1–492 (protein, UniProt Q5E9J8 1-492, looked up, variant R75M)
chain: B1 chain with R75M
modifications: residues 1-492
- interaction with full-length Gαt (in words) (Gαt [3]): disruption of the interaction
- mean Tm [2]: 45.9 C
- Tm (C ) ([2]; replicate 1): 45.86 C
- Tm (C ) ([2]; replicate 2): 45.81 C
- Tm (C ) ([2]; replicate 3): 45.88 C
- Tm (C ) ([2]; replicate 4): 45.96 C

- Rate of GDP/GTPγS exchange reaction on Gαi, mean (Gαi): 0.03238
- Rate of GDP/GTPγS exchange reaction on Gαi (Gαi; replicate 1): 0.03221
- Rate of GDP/GTPγS exchange reaction on Gαi (Gαi; replicate 2): 0.04368
- Rate of GDP/GTPγS exchange reaction on Gαi (Gαi; replicate 3): 0.02126
B3: Ric8A1–452: bovine Ric8A construct, residues 1–452 (protein)
chain: MEPRAVADALETGEEDVVMEALRAYNRENSQSFTFDDAQQEDRKRLAKLLVSVLEQGLPPSRRVIWLQSIRILSRDRSCLDSFTSRRSLQALACYAGISASQGSVPEPLNMDVVLESLKCLCNLVLSSPVAQALAAEAGLVVRLAERVGLCRQSSFPHDVQFFDLRLLFLLTALRTDVRQQLFQELQGVRLLTRALELTLGMTEGERHPELLPPQETERAMEILKVLFNITFDSIKREVDEEDAALYRHLGTLLRHCVMLAAAGDRTEELHGHAVNLLGNLPVKCLDVLLTLEPHEGSLEFLGVNMDVIRVLLSFMEKRLHQTHRLKESVAPVLSVLTECARMHRPARKFLKAQVLPPLRDVRTRPEVGELLRNKLVRLMTHLDTDVKRVAAEFLFVLCSESVPRFIKYTGYGNAAGLLAARGLMAGGRPEGQYSEDEDTDTDEYKEAKASI
modifications: left off: His6, N-terminal, state not stated
- Tm [2]: 45.5 ± 0.1 °C
- Tm ([2]; listed as Ric8A1-452): 45.5 °C

Source: PMC6625990, “Structural underpinnings of Ric8A function as a G-protein α-subunit chaperone and guanine-nucleotide exchange factor” (Nature Communications, 2019)
